Experimental data reported in the supplement of paper PMC7877785.
± gives the uncertainty stated by the source.

Assay: self-splicing fitness, log relative to wild type (ln ratio); higher = more splicing; Tetrahymena group I intron in knt gene, E. coli kanamycin selection, DiMSum; sequences stand for … in CUCUCU…GGAGGGAAAAGUUAUCAGGCAUGCACCUGGUAGCUAGUCUUUAAACCAAUAGAUUGCAUCGGUUUAAAAGGCAAGACCGUCAAAUUGCGGGAAAGGGGUCAACAGCCGUUCAGUACCAAGUCUCAGGGGAAACUUUGAGAUGGCCUUGCAAAGGGUAUGGUAAUAAGCUGACGGACAUGGUCCUAACCACGCAGCCAAGUCCUAAGUCAACAGAUCUUCUGUUGAUAUGGAUGCAGUUCACAGACUAAAUGUCGGUCGGGGAAGAUGUAUUCUUCUCAUAAGAUAUAGUCGGACCUCUCCUUAAUGGGAGCUAGCGGAUGAAGUGAUGCAACACUGGAGCCGCUGGGAACUAAUUUGUAUGCGAAAGUAUAUUGAUUAGUUUUGGAGUACUCGUGGUCG
Summary of the method: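 Pooled colonies went to amplicon sequencing on an Illumina HiSeq 2500 after six replicate transformations. The plates were LB agar with 100 μg/mL carbenicillin, 50 μM IPTG and 0.2% rhamnose, with or without 25 μg/mL kanamycin, incubated overnight at 37°C or 30°C. The E. coli BL21(DE3) library had all eight P1ex-region intron nucleotides randomised, the intron placed in the knt kanamycin-resistance gene on pET-22b(+). DiMSum fitness is the error-weighted combination of replicate fold changes, kanamycin against none, normalised to wild type.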

Sequence	self-splicing fitness (ln) (30 °C)	self-splicing fitness (ln) (37 °C)
GUACAGCAAUAUUACGUCGU	-1.34 ± 0.11	0.338 ± 0.11
CCCAAGCAAUAUUACGCAAG	-3.34 ± 0.19	-2.86 ± 0.22
UCGAAGCAAUAUUACGCUUG	–	-2.64 ± 0.26
UGUAAGCAAUAUUACGUCAU	-2.39 ± 0.16	-1.28 ± 0.19
GACAAGCAAUAUUACGUAAC	-1.64 ± 0.077	-1.22 ± 0.11
AGAUAGCAAUAUUACGUGAU	-1.92 ± 0.11	-0.886 ± 0.11
GACAAGCAAUAUUACGGUAA	-1.69 ± 0.11	-0.907 ± 0.11
GUCCAGCAAUAUUACGCUUA	-0.882 ± 0.067	-0.314 ± 0.07
ACUGAGCAAUAUUACGCAAA	-2.29 ± 0.38	-1.93 ± 0.34
ACAGAGCAAUAUUACGUGUG	-2.65 ± 0.12	-2.99 ± 0.14
AGCGAGCAAUAUUACGAGGG	-2.74 ± 0.3	-1.19 ± 0.35
GUGUAGCAAUAUUACGACUG	-1.71 ± 0.25	-1.47 ± 0.42
CGCGAGCAAUAUUACGAGCC	-3.49 ± 0.32	-1.4 ± 0.28
UGAGAGCAAUAUUACGUUAG	-3.68 ± 0.37	-3.31 ± 0.4
CUCAAGCAAUAUUACGACGA	-3.03 ± 0.23	-1.35 ± 0.14
UUGAAGCAAUAUUACGCUGA	-1.61 ± 0.15	-0.574 ± 0.19
GGGGAGCAAUAUUACGCUGA	-3.2 ± 0.16	-2.33 ± 0.2
UCUAAGCAAUAUUACGUGCA	-1.2 ± 0.12	-0.538 ± 0.13
CACUAGCAAUAUUACGUGGA	-3.76 ± 0.32	-2.44 ± 0.14
ACCGAGCAAUAUUACGACCU	-1.75 ± 0.11	-0.53 ± 0.12
AGUGAGCAAUAUUACGCAAG	-2.68 ± 0.22	-2.98 ± 0.26

Sequence	self-splicing fitness (ln) (30 °C)	self-splicing fitness (ln) (37 °C)
GCCGAGCAAUAUUACGGUUG	-1.38 ± 0.14	-0.555 ± 0.19
CUGCAGCAAUAUUACGCACG	-1.03 ± 0.047	-0.409 ± 0.069
CCGUAGCAAUAUUACGUUGG	-4.39 ± 0.27	-3.1 ± 0.19
CUCCAGCAAUAUUACGGGUA	-1.35 ± 0.067	-1.11 ± 0.08
CGCGAGCAAUAUUACGCUGA	-2.03 ± 0.22	-1.78 ± 0.35
GAUUAGCAAUAUUACGCGCU	–	-1.92 ± 0.4
AAGUAGCAAUAUUACGGUCA	-0.974 ± 0.094	-0.354 ± 0.1
CCACAGCAAUAUUACGGCGG	-3.15 ± 0.14	-1.08 ± 0.12
AACUAGCAAUAUUACGCCUU	-0.414 ± 0.073	0.376 ± 0.1
AUAUAGCAAUAUUACGGACC	-0.93 ± 0.22	-0.283 ± 0.24
GGCAAGCAAUAUUACGCUUG	-3.26 ± 0.2	-3.49 ± 0.34
CGCGAGCAAUAUUACGUUUC	-4.02 ± 0.27	-2.06 ± 0.25
UGAUAGCAAUAUUACGCGCA	-0.408 ± 0.091	0.2 ± 0.1
UAAAAGCAAUAUUACGGGGA	-1.73 ± 0.12	-0.962 ± 0.12
GAGUAGCAAUAUUACGGCCA	-1.95 ± 0.18	0.281 ± 0.26
GGCCAGCAAUAUUACGUGUA	-2.41 ± 0.083	-1.51 ± 0.1
ACUCAGCAAUAUUACGAAUA	-1.99 ± 0.14	-0.941 ± 0.15
UGGAAGCAAUAUUACGGAUG	-0.948 ± 0.098	-0.832 ± 0.12
GAUAAGCAAUAUUACGAUAC	-1.52 ± 0.18	-1.63 ± 0.27
CCGCAGCAAUAUUACGUCGG	-3.9 ± 0.21	-2.28 ± 0.2
GCGCAGCAAUAUUACGAAUC	0.348 ± 0.15	-0.0791 ± 0.13
